Consider 3 molecules from US20200407456A1 (AP BIOSCIENCES, published 2020).

Test [1] addresses T1, recombinant human CD137-ECD-Fc (APBio Inc.) (human, UniProt Q07011 24-186).
T1 construct: extracellular domain; Made by APBio; also called CD137-Fc recombinant protein; recombinant CD137/Fc; not shown: IgG4 Fc
As to the kind of experiment: ELISA on coated human CD137-IgG4 Fc. A general note: ELISA stands for enzyme-linked immunosorbent assay.

The target in test [2] is T2, CD137 expressed on cells (HEK-293F/CD137 cells); PMA/ionomycin-activated Jurkat cells; CD137 reporter HEK293 … (UniProt Q07011 24-255, limits assumed).
T2 construct: whole, on cells; One entry is used for CD137 on transfected HEK293/293F cells and for CD137 induced on Jurkat cells; also called 293F cells stably expressing CD137; CD137-overexpressing HEK-293F cells
T2 sequence (Q07011 24-255 limits assumed): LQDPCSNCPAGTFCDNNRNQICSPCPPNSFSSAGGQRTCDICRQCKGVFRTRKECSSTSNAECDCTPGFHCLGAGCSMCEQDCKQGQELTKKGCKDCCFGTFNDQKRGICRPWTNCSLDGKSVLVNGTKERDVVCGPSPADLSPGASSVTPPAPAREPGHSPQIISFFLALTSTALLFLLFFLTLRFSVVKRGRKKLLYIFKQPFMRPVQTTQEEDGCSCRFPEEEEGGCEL
As to the kind of experiment: flow cytometry on HEK-293F/CD137 cells, antibody 50 µg/ml, anti-human Fc-A488. (In flow cytometry, cells or beads pass a laser one at a time.)

T1 sequence (Q07011 24-186): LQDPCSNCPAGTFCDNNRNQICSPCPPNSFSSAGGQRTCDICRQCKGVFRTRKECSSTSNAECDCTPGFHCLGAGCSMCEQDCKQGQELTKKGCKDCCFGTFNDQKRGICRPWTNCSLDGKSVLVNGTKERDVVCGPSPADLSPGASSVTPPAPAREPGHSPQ

B1: anti-CD137 antibody clone 31 (antibody, human IgG4 S228P, lambda, V domains shown)
VH: not shown
VL: QSALTQPASVSGSPGQSITISCTGTSSDVGAYNFVSWYQQRPGKAPELMIYDVSDRPSGVSNRFSGSKSGNTASLTISGLQTEDEADYYCSSYTSSITRYVFGTGTKVTVLG
notes: also called CD137 #31; anti-CD137#31
As to B1, the binding result in test [1] and in test [2] was “binds” each time.

B2: anti-CD137 antibody clone 15 (antibody, human IgG4 S228P, lambda, V domains shown)
VH: QVQLVQSGAEVKKPGSSVKVSCKASGGTFSSYAISWVRQAPGQGLEWMGRIIPILGIANYAQKFQGRVTITADKSTSTAYMELSSLRSEDTAVYYCASDLYQLLFPYYYGMDVWGQGTTVTVSS
VL: QLVLTQPPSASASLGASVTLTCTLSSGYSNYKVDWYQQRPGKGPRFVMRVGTGGIVGSKGDGIPDRFSVLGSGLNRYLTIKNIQEEDESDYHCGADHGSGSNLFWVFGGGTKLTVLG
notes: also called CD137 #15; anti-CD137#15
B2: the binding result in test [2] is “binds”.

B3: anti-CD137 antibody clone 54 (antibody, human IgG4 S228P, lambda, V domains shown)
VH: QVQLVQSGAEVKKPGSTVKVSCKASGGTFSSYAISWVRQAPGQGLEWMGRIIPILGIANYAQKFQGRVTITADKSTSTAYMELSSLRSEDTAVYYCASPPYYDSSGYYPLGAFDIWGQGTMVTVSS
VL: SYELTQPPSVSVSPGQTASITCSGDKLGEKYASWYQQKAGQSPILVIYQDSKRPSGIPERFSGSNSGNTATLTISGLQAGDEADYYCQAWDGSSTYVFGTGTKVTVFG
notes: also called CD137 #54; CD137#54
Regarding B3, the binding result in test [1] and in test [2] was “binds” in each case.
